Reference: patent US12366576B2, “Compositions, assays, and methods for direct modulation of fatty acid metabolism” (Dana-Farber Cancer Institute, Inc., priority 2016, dated 2025)
Bridge positions count the residues as written; N and C are the ends. Square brackets hold non-standard residues; d marks the D form. Ends that are not written are not given here. S5 = C=CCCC[C@](C)(N)C(=O)O

Molecular target: T1, VLCAD (Homo sapiens, UniProt P49748)
T1 construct: 10x His (N); made in house; host or cells: E. coli BL21(DE3), pET19b
T1 sequence (P49748 40-655): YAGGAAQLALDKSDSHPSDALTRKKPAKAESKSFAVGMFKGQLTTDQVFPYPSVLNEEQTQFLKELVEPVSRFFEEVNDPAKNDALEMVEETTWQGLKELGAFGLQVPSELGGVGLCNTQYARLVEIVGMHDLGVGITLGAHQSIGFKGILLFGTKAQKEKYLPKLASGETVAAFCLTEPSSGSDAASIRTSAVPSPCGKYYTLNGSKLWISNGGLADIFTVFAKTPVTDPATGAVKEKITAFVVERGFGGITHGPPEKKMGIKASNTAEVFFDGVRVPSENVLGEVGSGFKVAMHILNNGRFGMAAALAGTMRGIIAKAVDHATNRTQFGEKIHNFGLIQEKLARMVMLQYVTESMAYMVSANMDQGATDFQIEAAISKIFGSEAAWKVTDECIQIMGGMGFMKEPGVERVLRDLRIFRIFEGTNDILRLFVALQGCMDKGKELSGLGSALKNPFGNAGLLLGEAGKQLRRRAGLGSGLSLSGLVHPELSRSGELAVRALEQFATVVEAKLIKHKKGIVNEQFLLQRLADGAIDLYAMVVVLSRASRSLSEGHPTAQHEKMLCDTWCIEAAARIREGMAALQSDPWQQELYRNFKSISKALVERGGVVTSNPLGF
Experiment: 19F NMR binding study with fluorinated SAHB
Conditions: fluorinated SAHB 25 μM, VLCAD 0-125 μM
Experimental: To measure the direct binding interaction, ^19F NMR binding studies were conducted using fluorinated analogs of MCL-1 SAHBD. […] Both SAHBs, however, bind MCL-1ΔNΔC, as illustrated by a chemical shift of the peptide NMR peak in both cases (FIG. 15). […] To perform these experiments, N-terminal Btn-PEG analogs of the peptides were immobilized onto streptavidin probes that were then placed into protein solutions at a variety of concentrations to measure ligand-target association.
VLCAD. Mature human VLCAD lacking its cleavable leader sequence (aa 40-655) (NP_000009.1) was subcloned into the pET19b vector (Novagen) using NdeI and XhoI restriction sites. Correct insertion was confirmed by DNA sequencing. […]
To determine binding of SAHBs to VLCAD, fluorinated SAHB (25 μM) and VLCAD (0-125 μM) were mixed together in VLCAD FPLC buffer including 10% D2O to a final volume of 500 μL. […] The extent to which VLCAD bound the peptide was determined by measuring the peak width at half height (ν1/2) of the peptide ^19F signal. […] MCL-1ΔNΔC binding to SAHBs causes a change in the ^19F chemical shift of the peptide resulting in two peptide signals (instead of peak broadening), so extent of binding was quantified by measuring the peak height of “unbound” peptide relative to the bound peptide signal.

MCL-1 SAHBD: hydrocarbon-stapled peptide mimicking the MCL-1 BH3 domain (Stabilized Alpha-Helix of BCL-2 Domain), SEQ ID NO:19 (RKALETLRRVGDGV[S5]RNH[S5]TAF; staple 15-19)
19F NMR peptide peak broadening on VLCAD titration: peak broadens, indicative of a direct binding event
